Laboratory results from the DeepSol protein solubility set.

Assay: soluble on expression in E. coli; label from the status in PepcDB or PDB records

MIHSLFLINSSGDIFLEKHWKSVVSRSVCDYFFEAQERATEAENVPPVIPTPHHYLLSVYRHKIFFVAVIQTEVPPLFVIEFLHRVVDTFQDYFGVCSEPVIKDNVVVVYEVLEEMLDNGFPLATESNILKELIKPPTILRTVVNTITGSTNVGDQLPTGQLSVVPWRRTGVKYTNNEAYFDVVEEIDAIIDKSGSTVTAEIQGVIDACVKLTGMPDLTLSFMNPRLLDDVSFHPCVRFKRWESERILSFIPPDGNFRLLAYHVSAQNLVAIPVYVKHSISFRDSSSLGRFEITVGPKQTMGKTIEGVIVTSQMPKGVLNMSLTPSQGTHTFDPVTKMLSWDVGKINPQKLPSLKGTMGLQVGASKPDENPTINLQFKIQQLAISGLKVNRLDMYGEKYKPFKGIKYMTKAGKFQVRT
soluble on expression in E. coli: not soluble

MPLHVVEQPAFLVAVVPDMVGGRLSSHDKDLLGLARKLAGNDGAVLAVVFGEHKESAFDSAGVDRLLHLSGGEYDGYAPEQRILALRNLENQLAPRHWLFPDSRNGGGELGRRLAAALGERPAGRVWQVEDGRCIGRAGAGREDIQRALPRLLLAAAECAEPVSETRHEVRELHMAEQVARNLPRIEDLGPVAVDPA
soluble on expression in E. coli: not soluble

GLGRKPHTRILSFEKLEADKFICQHLNLSLGEAVFKLSRLRIADNEPLMVEDTYLPVKFFLSLTDQLLRSKPLYDLFSEDFKQTVRLADEELYASIASKEDAKLLMIPEGAPVLHLARQTYNMKNEIIEFTLSVARADQFHYQIRHIRNS
soluble on expression in E. coli: soluble

MSQIIIKTPQEIEKMRVAGRLAAEVLEMITPFVKEGVTTAELDKICHEYIVKEQDAYPAPLNYHGFPKSICASINHVVCHGIPADKKLKNGDILNIDITVKKDGYHGDTSKMFMIGEPSVMAKKLVEVTHECLWKGIEVVKPGNHFGDIGAAIEKHAKKFGYSIVDAFCGHGIGANFHEPPHVMHHGKAGTGAMFEEGMIFTIEPMINIGKRAVSVLKDGWTAVTKDRSLSAQWEHTILVTKDGYEVLTLREEEKN
soluble on expression in E. coli: not soluble

MFKIKTIESLSDLTQLKKAYFDSSIVPLDGMWHFGFAPMAKHFGFYVNKNLVGFCCVNDDGYLLQYYLQPEFQLCSQELFTLISQQNSSVIGEVKGAFVSTAELNYQALCLDNSATFKVNSLMYQHNTKLADRNLEMIDMQIAGTEQLTAFVTFAAANIGAPEQWLTQYYGNLIERKELFGYWHKGKLLAAGECRLFDQYQTEYADLGMIVAQSNRGQGIAKKVLTFLTKHAATQGLTSICSTESNNVAAQKAIAHAGFTSAHRIVQFEFKHA
soluble on expression in E. coli: soluble

MGSDKIHHHHHHMQLPGGVQLTYCTNLHAASSLDEVRANLDRYAVPLKARLSPNAPFGIGLRLSGQESAELLEGQALAAFKAFLDERGLYVFTLNGFPYGPFHGQPVKTQVHAPDWRDAERVAYTQRLAEILAFLLPEGGEGGISTSPLSYRGWVEADSRSAWIQMTGNLVRVVETLIRLRQRWGRFIHLDLEPEPDGLLQCSDDLARFFREHLLGGGARDLAARLGIDVEQARAYLRDHVQVCFDTCHVAVMYEDPAQALQTYEQVGLRIGKVQISSALRLPLPPDPEARLDGARALVPFVEDTYLHQVIGRSRDGKIVQYPDLPPALAHVRDPQVTEWRIHFHIPVFLERAGLFASTQPEIVKTLALLREKGFTRHLEIETYTWDVLPEALKLPLLCSIEREYRWVMDVL
soluble on expression in E. coli: not soluble

MGSDKIHHHHHHMQSIVQTNFTGIDGLIIRNEPRPALTDNGVLIAMETLPVVPSDWHKETDPNATAEQALQLPRVIGIGGVGTVIEVGHNRDQKLLHQRVLVMHPKGSYQEFILNTNSDWLFPLPINVSNAEAATLTAGPGVALALTEFIKQNPSDHLVITGANSVIGLILCQLLGSTYPGLTPIVSPDSQAYFNQSLPGYPVYSIEHLQLFHGRTLIIDIAGSEPLLQQLIAAVPRASIASIALQTSNLNVPFTFVHEDFNHQIYCHLIKTVASHKLWLPIGRIFSFAETKKAQHYAKDHHSRGRVLVNLN
soluble on expression in E. coli: not soluble

MGSDKIHHHHHHMLLSRVAESLYWINRYLERAENISRFVEVSESMALDCPPGSAEPWLPLVDASGDRNKFDESYLNKTPSDVANFLIKDRENPNSILSCICMARENARQIRDVITSEMWEQINSLYWSIQEGEVIWHQPAQEQLFEIRRGCQLFYGVTDATFSHDIAWNFSKLGRLIERADKTSRILDVKYFLLLPNLKELGGALDELQWISLLRSAGAYQMFRISEQGSITPNAIASFLLLDPIFPRSVRFCLEGINESLSKIQNSPVSKKPNDLECLIGLLLSKWSFVRIDHLIKDGLHEAIDSLQIDLNKLHDLIHGIYFRNDKKFDFESLQG
soluble on expression in E. coli: not soluble

MSLEVVLWDFDGVIFDSMHLKNEGFRALFQKHGNKNQESLKQFEVYHYQSGGISRNEKIQYFYNEILKTPIAQEEVDALALEFGTIIEQKLFDREHLNSEVMAFIDKHYKNHVFHIASAALHSELQVLCEFLGIIKYFKSVEGSPPNKPKIIANIIQKYAYNPGRMLMIGDSVNDYESAQANEVAFLGYNSKVLKNLVGQNGYQGKYLESFKGFDLQNFIKEGHHHHHH
soluble on expression in E. coli: soluble

MLEACTKCGTCAEACTMYLGSGRKKIYSPVYRSDMLRKIYKKHFTLTGKLFGPLIGAKDPTEDDINALAESAYRCTVCRRCALACPFGLDNGLITRETRKIFADLGILEHHHHHH
soluble on expression in E. coli: not soluble

MAHHHHHHMSSTVTGQAIPKLFPKAFHSWVGTGRIFNFLAPYEQNRVIAYLNSIYNTAPLFKWSLSIVPLYGIVSGYPPVEKIDFNSSAALCATGMVWFVYALLIQPQNSGSRSLALVNICLATVNGYNCYRSAQHKRRQAVNANRIE
soluble on expression in E. coli: not soluble

MKQQEEHNNKIDLLEKQQAQLKSQLETIQKQQTGIISSTKTLTHVIKSVKDQQNTFIFTEFNPAKTKYFILNNGSVALAGRVLSIDATENGSVIHISLVNLLSTPISNIGFNATWGGEKPVDAKEFARWQQLLFNTSMKSTLKLLPGQWQDINLTLKGVSPNNLGYLKLAINMENIQFDNLPSAENRQKRSKK
soluble on expression in E. coli: not soluble

MSEDRSSNGHKSWLDKITQAFAHEPRNRQELLELLRDAHDNKLLDSEALSIVEGAIQVADLQVRDIMVPRSQMMSIRSTQTPKEFLPAIIEAAHSRYPVVGESLDDVMGVLLAKDLLPLILHNDERPFDIKELLRPATFVPESKRLNVLLREFRANRNHMAIVIDEYGGVAGLVTIEDVLEQIVGDIEDEHDVEEDSYIKPLPSGDFIVKALTPVDAFNDFFGSEFSDEEFDTVGGLVMSAFGHLPKRNEVVELGEFRFRVLNADSRRVHLLRLSPLQN
soluble on expression in E. coli: soluble

MLVRLGYVAMTMNLKDSSPSGTVTVKTLAGLNEDETRLNKLRKVTAANLHNTLRILRYNKAYNISVYRFTSKLVPLATHPMVSHWDYVGEFRNEFKSLGDFVKENNFRVSAHPDHYTLLNSPSKEVFEASVRDLDYHVKLFEAMGLEDYKYKLVMHIGGLYKNKQTSVERFKENYAILPDRIRKRLIFENDDKIYTARDVLDICKELKVPMVLDVHHHNCVNNGERLEDMLKEIFDTWKDEYFPPKIHFSTPKSKENFRSHADEIDVNEFYRFLQIAKKLKKDFDVMIEAKNKDNALFKLSRELKTFDDIRWIDEGHFEIR
soluble on expression in E. coli: not soluble

MIELEGVPELVDPVMVAAFEGWNDAGDAASTAVAHLDREWKGEVFAALDAEDYYDFQVNRPTVFMEDGVRKITWPTTRLSVVRVGGDKPRDLVLVRGIEPSMRWRSFCNELLGFAHELGVELVVVLGALLGDTPHTRPVPISGTTSDADLARRMDLEETKYEGPTGIVGILQEACTHAGVPAVSLWAAVPHYVSQPPNPKATLALLNRLEDLIGVRVPLGELPEDARAWQVGVDQLAAEDTEVAEYVQSLEEARDTA
soluble on expression in E. coli: soluble

GSHMQSYQISSRLMAQEGQRTSVQTSSLIQSLFDFRLAALRIHQDSTAKNASLINALVSRDSSRLDEFFSSVDELELSNAPDLRFISSHDNILWDDGNASFYGIAQQELNKLIRRVAISGNWHLVQTPSEGKSVHILMRRSSLIEAGTGQVVGYLYVGIVLNDNFALLENIRSGSNSENLVLAVDTTPLVSTLKGNEPYSLDYVVHSAKDAMRDSFIVGQTFLEVESVPTYLCVYSIQTNQNVLTLRDNESVPTYLCVYSIQTNQNVRHQ
soluble on expression in E. coli: soluble

MGHHHHHHSHNDGRIMGFVSRSQERRLLKKTMSGTFLLRFSESSEGGITCSWVEHQDDDKVLIYSVQPYTKEVLQSLPLTEIIRHYQLLTEENIPENPLRFLYPRIPRDEAFGCYYQEKVNLQERRKYLKHRLIVVSNRQVDELQQPLELKPEPELESLELELGLVPEPELSLDLEPLLKAGLDLGPELESVLESTLEPVIEPTLCMVS
soluble on expression in E. coli: soluble

MGSDKIHHHHHHMESLKKCFDLQGKEIVSIVGSGGKTSLMWALAKTYRKEAVLVSTTTKIGFPQRQLYDYFYTNHFEKITPNICGITLAGTAINNQTKLTMPAMTSFQTLFQHFTKVFLEADGSKQRPLKGWSSYEPVILKETTTTIGVLPISVIGQKIDETTIHRLPLFLELTDAQLQEPITETLLAQLIDHPKGLFKESQGQRILCLNQTHTRREFVQAMNVCLQLPKSCFEKLDKIIACNMELEKGLILWEKSVKTSKKN
soluble on expression in E. coli: not soluble

MDKSTPRRTYNLRSADRTTQNSPVSRQSLENHRNASVSLRKRSSTSSLQRIQSEFTFTDSATEERCSRKRRRTQQTHGLPFSSPDAINHQRAFHLDEHKVCSKLTTRLSIEVETSYGSFGKLPYDAVIHILTRTPYNLLSRMVMTSSCWNQTIGAYMRSGAFRRRWLLDIDIAPSSKPLDPFFDMGKLVRCLTINYEWKARLDCLKSFMTLAYESGALIAGLGKMIHAFTNRPDEDIVLEQIDDIVAMLLALVSGLKDDLSAVLFTPETDRELEELDNMPILREEMKLRKKTLNLFLNNGSSDPAHGVNKYFLSSLMKVFKTAHNALPTALFYLLFSPTTIQDDEEVIHWHRLSLLSVVTSEEAEELKPLSRAMCALIQCRNLKHVLPWSKNTIFNLMEEITTYPNPWSMSTFVALNVLEPELVPIGVVARMNRNHEDEAGDIICTMKMLLHRWDMDVYGVMESIIDTIKAVLKPYQRRILFDRCWDWHQRNIDEHRNQMGHFSDIRAEIESQIEVMPVLMKLL
soluble on expression in E. coli: not soluble

AHHHHHHGSEYTIVDGEEYIEEIKKLDREISYSFVRFPISYEEYEERHEELFESLLSQGEHKFFVALNERSELLGHVWICITLDTVDYVKIAYIYDIEVVKWARGLGIGSALLRKAEEWAKERGAKKIVLRVEIDNPAVKWYEERGYKARALIMEKPI
soluble on expression in E. coli: soluble

KPLQRKLASGMVKKHSIIRALNKVYKRDVYFPGEEELNEVLSDEHKSGANTWEETTELNFEPDMTTVTTEDQSAKPPEQKTPSKDVLDFTQNFLQP
soluble on expression in E. coli: not soluble

MVIELKNEKVTVQFKEFGGALSSIKDQDGIEYLWQGNPAYWSSQAPVLFPICGSLRNDKGIYTSKKHSHRYGSIPRHGLVRKKNFRFEQLGKDSVVFTITPDKEMLMQYPYHFELKIIYTLKHTTIRTEYQVINKEKESIMPYFIGGHPGLNCPLFAGDRYEDYYLEFEKEETCTVPKSFPDTGLLDLQDRKIFLKGQKYLDLDYSLFTHDAITLDNLQSRSVSLRSKNHGGGLRLDFADFPYLILWSTANKSPFIALEPWSGLSTAVDESDYFEEKRNVSFVEPGQFDRNYFDITVLLEHHHHHH
soluble on expression in E. coli: soluble

MSLSQCQTLLSQINRRIESYENIPVFSFAQKLPLFDSNSTKLKLNSQTNEMMMELLSLVEQNKGKKILIVGHSDNTGSSSMNMTLSEQRALALRDWLIKRSDITVDNFITKGMGASEPVATNHTEAGREQNRRVEVLILPTQDRTRMTEPKPLEGHHHHHH
soluble on expression in E. coli: soluble
